# Data as given in patent US6638907 (BIOSTRATUM, dated 2003).
# How the values were obtained:
# [1] = target: integrin α2 on HT-1080 cells (human) (UniProt P17301); assay: cell-based or functional assay
# [2] = target: integrin α6β1 on bovine adrenal microvascular endothelial (BCE) cells (bovine) (UniProt P53712); assay: cell-based or functional assay
# [3] = target: α6-subunit containing integrins on mouse IBE (Immortomouse brain capillary endothelial) cells; assay: cell-based or functional assay
# [4] = target: T1, disulfide-linked β1/γ1 dimer of r-laminin 8 (mouse β1, human γ1) (mouse; human, UniProt P02469 22-1786; P11047 34-1609); assay: non-reducing SDS-PAGE of anti-FLAG purified r-laminin 8
# T1 construct: mature; also called covalently associated dimers; the dimers
# Source text: The r-laminin 8 bound to anti-FLAG M2 matrix with high specificity. […] (FIG. 1) Under non-reducing conditions, the purified protein hardly entered the gel, which was to be expected as the predicted molecular weight for the mature trimer is at least 570 kD. A minor fraction of the purified trimer appeared as non-covalently associated (see discussion). In this fraction, the β1 and γ1 chains appeared as covalently associated dimers, whereas the α4 chain was non-covalently associated. Under reducing conditions, the protein appeared as a broad band at around 200 kD, which reacted on Western blots with α4, EHS, γ1, and anti-FLAG antibodies. The predicted molecular weights for mature α4, β1, and γ1 polypeptides are 200, 195, and 174 kD respectively. Laminins are heavily glycosylated, which may account for the slight discrepancy in molecular weight observed in SDS-PAGE.
# Chain of integrin α2 on HT-1080 cells (human) (P17301 30-1181): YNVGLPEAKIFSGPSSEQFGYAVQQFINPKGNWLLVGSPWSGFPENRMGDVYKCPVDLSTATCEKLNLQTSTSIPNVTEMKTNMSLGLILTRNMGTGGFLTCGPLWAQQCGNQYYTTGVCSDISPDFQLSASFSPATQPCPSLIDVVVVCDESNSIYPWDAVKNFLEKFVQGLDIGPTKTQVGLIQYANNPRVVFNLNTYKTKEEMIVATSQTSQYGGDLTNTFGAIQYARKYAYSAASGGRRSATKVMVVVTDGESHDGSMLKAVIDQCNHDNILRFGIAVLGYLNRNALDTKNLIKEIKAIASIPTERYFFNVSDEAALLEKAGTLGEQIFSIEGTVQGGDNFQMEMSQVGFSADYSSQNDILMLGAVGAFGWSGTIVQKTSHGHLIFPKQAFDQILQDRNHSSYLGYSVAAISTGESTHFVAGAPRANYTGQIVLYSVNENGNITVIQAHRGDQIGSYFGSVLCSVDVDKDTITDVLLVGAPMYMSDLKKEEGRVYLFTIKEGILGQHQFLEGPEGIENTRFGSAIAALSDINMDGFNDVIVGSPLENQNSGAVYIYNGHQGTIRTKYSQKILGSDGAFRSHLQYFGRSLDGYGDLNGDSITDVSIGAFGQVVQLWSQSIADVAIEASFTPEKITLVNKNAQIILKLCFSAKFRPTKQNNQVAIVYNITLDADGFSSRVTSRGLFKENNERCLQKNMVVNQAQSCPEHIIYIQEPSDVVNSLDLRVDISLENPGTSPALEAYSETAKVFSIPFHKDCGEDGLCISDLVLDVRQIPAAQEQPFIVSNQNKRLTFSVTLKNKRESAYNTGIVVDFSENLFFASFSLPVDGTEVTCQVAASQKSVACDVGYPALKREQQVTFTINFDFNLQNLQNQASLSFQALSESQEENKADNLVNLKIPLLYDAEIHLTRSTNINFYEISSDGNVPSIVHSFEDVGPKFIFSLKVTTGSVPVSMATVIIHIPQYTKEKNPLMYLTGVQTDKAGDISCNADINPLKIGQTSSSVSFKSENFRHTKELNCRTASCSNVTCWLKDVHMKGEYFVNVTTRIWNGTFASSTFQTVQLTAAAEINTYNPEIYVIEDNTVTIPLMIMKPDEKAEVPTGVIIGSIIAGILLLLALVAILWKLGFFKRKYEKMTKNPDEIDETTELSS
# Chain of integrin α6β1 on bovine adrenal microvascular endothelial (BCE) cells (bovine) (P53712 21-798): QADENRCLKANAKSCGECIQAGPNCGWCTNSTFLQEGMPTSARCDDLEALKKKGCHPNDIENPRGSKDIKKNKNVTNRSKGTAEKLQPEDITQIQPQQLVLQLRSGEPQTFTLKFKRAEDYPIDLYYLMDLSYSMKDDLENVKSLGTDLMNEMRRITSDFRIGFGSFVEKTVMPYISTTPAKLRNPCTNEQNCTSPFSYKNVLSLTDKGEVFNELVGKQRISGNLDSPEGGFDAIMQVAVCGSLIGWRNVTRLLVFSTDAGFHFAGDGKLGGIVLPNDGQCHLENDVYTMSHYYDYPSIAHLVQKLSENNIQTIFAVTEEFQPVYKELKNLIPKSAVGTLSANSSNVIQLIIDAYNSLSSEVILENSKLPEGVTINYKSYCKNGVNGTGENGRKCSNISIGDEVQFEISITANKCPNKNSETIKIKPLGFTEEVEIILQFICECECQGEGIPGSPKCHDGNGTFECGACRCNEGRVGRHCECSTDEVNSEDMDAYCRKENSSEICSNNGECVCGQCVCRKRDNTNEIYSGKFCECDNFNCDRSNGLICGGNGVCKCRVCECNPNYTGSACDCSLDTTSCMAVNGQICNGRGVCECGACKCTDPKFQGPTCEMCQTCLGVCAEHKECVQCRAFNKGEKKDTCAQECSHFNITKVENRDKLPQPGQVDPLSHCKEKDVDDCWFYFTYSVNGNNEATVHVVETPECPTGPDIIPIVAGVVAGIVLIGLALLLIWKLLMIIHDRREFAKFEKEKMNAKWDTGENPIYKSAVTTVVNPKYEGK
molecule,measurement,setting,value
collagen type IV from EHS-tumor (from UniProt P02463 28-1669; P08122 26-1707),"HT-1080 cell adhesion to Type IV collagen with anti-integrin α2 mAb, percent of control",[1],50%
"recombinant laminin 8 (human α4 chain with C-terminal FLAG epitope, mouse β1 chain, human γ1 chain) (from UniProt Q16363 25-1823; P02469 22-1786; P11047 34-1609)","BCE cell adhesion to coated r-laminin 8 with anti-β1 mAb AIIB2, percent blocked",[2],70%
same,"IBE cell adhesion to coated r-laminin 8 with anti-α6 mAb, percent blocked",[3],60%
"human laminin α4 chain containing a C-terminal FLAG epitope (other, The α4 chain alone, as the non-crosslinked partner in the minor fraction of r-laminin 8; also called FLAG-tagged α4 chain) ASGDDNAFPFDIEGSSAVGRQDPPETSEPRVALGRLPPAAEKCNAGFFHTLSGECVPCDCNGNSNECLDGSGYCVHCQRNTTGEHCEKCLDGYIGDSIRGAPQFCQPCPCPLPHLANFPESCYRKNGAVRCICNENYAGPNCERCAPGYYGNPFLIGSTCKKCDCSGNSDPNLIFEDCDEVTGQCRNCLRNTTGFKCERCAPGYYGDARIAKNCAVCNCGGGPCDSVTGECLEEGFEPPTGCDKCVWDLTDDLRLAALSIEEGKSGVLSVSSGAAAHRHVNEINATIYLLKTKLSERENQYALRKIQINNAENTMKSLLSDVEELVEKENQASRKGQLVQKESMDTINHASQLVEQAHDMRDKIQEINNKMLYYGEEHELSPKEISEKLVLAQKMLEEIRSRQPFFTQRELVDEEADEAYELLSQAESWQRLHNETRTLFPVVLEQLDDYNAKLSDLQEALDQALNYVRDAEDMNRATAARQRDHEKQQERVREQMEVVNMSLSTSADSLTTPRLTLSELDDIIKNASGIYAEIDGAKSELQVKLSNLSNLSHDLVQEAIDHAQDLQQEANELSRKLHSSDMNGLVQKALDASNVYENIVNYVSEANETAEFALNTTDRIYDAVSGIDTQIIYHKDESENLLNQARELQAKAESSSDEAVADTSRRVGGALARKSALKTRLSDAVKQLQAAERGDAQQRLGQSRLITEEANRTTMEVQQATAPMANNLTNWSQNLQHFDSSAYNTAVNSARDAVRNLTEVVPQLLDQLRTVEQKRPASNVSASIQRIRELIAQTRSVASKIQVSMMFDGQSAVEVHSRTSMDDLKAFTSLSLYMKPPVKRPELTETADQFILYLGSKNAKKEYMGLAIKNDNLVYVYNLGTKDVEIPLDSKPVSSWPAYFSIVKIERVGKHGKVFLTVPSLSSTAEEKFIKKGEFSGDDSLLDLDPEDTVFYVGGVPSNFKLPTSLNLPGFVGCLELATLNNDVISLYNFKHIYNMDPSTSVPCARDKLAFTQSRAASYFFDGSGYAVVRDIPRRGKFGQVTRFDIEVRTPADNGLILLMVNGSMFFRLEMRNGYLHVFYDFGFSSGRVHLEDTLKKAQINDAKYHEISIIYHNDKKMILVVDRRHVKSMDNEKMKIPFTDIYIGGAPPEILQSRALRAHLPLDINFRGCMKGFQFQKKDFNLLEQTETLGVGYGCPEDSLISRRAYFNGQSFIASIQKISFFDGFEGGFNFRTLQPNGLLFYYASGSDVFSISLDNGTVIMDVKGIKVQSVDKQYNDGLSHFVISSVSPTRYELIVDKSRVGSKNPTKGKIEQTQASEKKFYFGGSPISAQYANFTGCISNAYFTRVDRDVEVEDFQRYTEKVHTSLYECPIESSPLFLLHKKGKNLSKPKASQNKKGGKSKDAPSWDPVALKLPERNTPRNSHCHLSNSPRAIEHAYQYGGTANSRQEFEHLKGDFGAKSQFSIRLRTRSSHGMIFYVSDQEENDFMTLFLAHGRLVYMFNVGHKKLKIRSQEKYNDGLWHDVIFIRERSSGRLVIDGLRVLEESLPPTEATWKIKGPIYLGGVAPGKAVKNVQINSIYSFSGCLSNLQLNGASITSASQTFSVTPCFEGPMETGTYFSTEGGYVVLDESFNIGLKFEIAFEVRPRSSSGTLVHGHSVNGEYLNVHMKNGQVIVKVNNGIRDFSTSVTPKQSLCDGRWHRITVIRDSNVVQLDVDSEVNHVVGPLNPKPIDHREPVFVGGVPESLLTPRLAPSKPFTGCIRHFVIDGHPVSFSKAALVSGAVSINSCPAADYKDDDDK",binding result,[4],binds
